{"source": "paper PMC8635971", "about": "“A nanocompartment system contributes to defense against oxidative stress in Mycobacterium tuberculosis” (eLife, 2021)", "proteins": {"B1": {"name": "unencapsulated (naked) DyP purified from E. coli (enzyme)", "chain": "MAVPAVSPQPILAPLTPAAIFLVATIGADGEATVHDALSKISGLVRAIGFRDPTKHLSVVVSIGSDAWDRLFAGPRPTELHPFVELTGPRHTAPATPGDLLFHIRAETMDVCFELAGRILKSMGDAVTVVDEVHGFRFFDNRDLLGFVDGTENPSGPIAIKATTIGDEDRNFAGSCYVHVQKYVHDMASWESLSVTEQERVIGRTKLDDIELDDNAKPANSHVALNVITDDDGTERKIVRHNMPFGEVGKGEYGTYFIGYSRTPTVTEQMLRNMFLGDPAGNTDRVLDFSTAVTGGLFFSPTIDFLDHPPPLPQAATPTLAAGSLSIGSLKGSPR", "notes": "dye-decolorizing peroxidase DyP, Rv0799c, Mycobacterium tuberculosis; Tetramer seen after addition of hemin; The methods say the SUMO tag was removed; the results call the protein SUMO-tagged; A tetramer of 144 kDa would fit an untagged monomer of about 36 kDa (surmise); also called free DyP; SUMO-tagged unencapsulated DyP"}}, "target": "the molecule itself", "test": "SDS-PAGE of unboiled (native state) samples", "data": [{"protein": "B1", "values": [{"measurement": "stoichiometry N", "result": 4}]}]}
